“Also recorded” adds a separate entry of the source.
Assays:
H1299-P53 tumor = experiment: Subcutaneous tumor growth in nude mice, H1299-P53; type: in vivo
Description: (§1) Tumor-bearing nude mice were randomly divided into four groups with 6 to 8 animals for each group, and different drug treatments were performed. […] Tumor volume was measured every other day. 2 to 4 weeks after administration, the mice were sacrificed and the tumor tissue was removed for further use.

[1] = system: P53-deficient tumor cells (H1299-NC and A549-shP53); experiment: CCK8 cell activity, P53-deficient tumor cells; type: cell-based
Description: (§2) First, a lentivirus kit (purchased from Shanghai Genepharma) was used to construct a P53 stably overexpressing H1299 cell line (H1299-P53) and a P53 stably knockdown A549 cell line […]. The P53 sequence targeted by the shRNA used to knock down P53 in A549 cells was 5′-[…]-3′ (SEQ ID NO: 4). Virus transfection and the construction of stable cell lines were performed according to the kit instructions. […] After treatment for 12 hours, the drug-containing medium was replaced with a normal medium and the cells were further cultured for 72 hours. Cell activity was measured according to the instructions of the CCK8 kit (Dojindo, Tokyo, Japan).
(§3) In this example, another chemical drug, Doxorubicin, was used to verify that Endostatin can enhance the sensitivity of P53-deficient tumor cells to chemotherapy. Operation process was the same as in Example 5.

[2] = system: A549 tumor-bearing mice (normal P53 function); experiment: Survival of A549 tumor-bearing mice; type: in vivo; conditions: A549, normal P53 function (FIG. 13B); compared with control group; administration as in Example 12, stopped after 25 days
Description: as §1
(§4) H1299 and A549 cells were cultured in a vigorous and proliferative state, and tumor collection, grouping, and administration methods were the same as in Example 12. The administration was stopped after 25 days, and the survival of the mice was recorded daily, and the survival curve of the mice was plotted.

[3] = system: PCNA and DNA-PKcs protein in H1299-P53 and A549-NC tumor tissues; experiment: Immunofluorescence of PCNA and DNA-PKcs in tumor tissue, mouse tumor model with normal P53 function; type: in vivo, nude mice; conditions: H1299-P53 and A549-NC tumors of Example 12; quantitative immunofluorescence
Description: as §1
The tumor tissue removed in Example 12 was fixed and embedded, and then sectioned. PCNA (a marker molecule indicating the vigorous proliferation status of tumor cells) and DNA-PKcs protein in tumor tissues were stained by immunofluorescence technique, and were observed and imaged with a laser confocal microscope (Nikon A1). The experimental results are shown in FIG. 14A-14D, in which blue represents the nucleus of DAPI-stained cells, green represents the DNA-PKcs protein, and red represents the PCNA protein. Taking the H1299-NC tumor tissue shown in FIG. 14A as an example, the first column on the left represents DNA-PKcs single staining, and the green area represents the DNA-PKcs protein expression level. The second column on the left represents the results of DNA-PKcs (green) merged with nucleus (blue), and the overlapping part is shown in cyan. The third column on the left represents PCNA single staining, and the red area represents the PCNA protein expression level, indicating the strength of tumor cell proliferation. […]

H1299-NC tumor = experiment: Subcutaneous tumor growth in nude mice, H1299-NC; type: in vivo; conditions: Day 19, compared with control group, Endostatin 20 mg/kg i.p. once a day, Etoposide 2 mg/kg i.p. once every two days
Description: as §1

[4] = system: mRNA levels of BAX, NOXA, PUMA, and P21; experiment: Real-time PCR of pro-apoptotic molecules, tumor cells with normal P53 function; type: cell-based; conditions: H1299-P53, A549-NC; Endostatin 10 μg/ml added 1 h before Etoposide 1 μM, 16 h
Description: (§5) After the cells were treated as described above, the total RNA of the cells was extracted, and the relative changes in mRNA levels of BAX, NOXA, PUMA, and P21 in the cells were detected by real-time PCR.

[5] = system: DNA-PKcs, PARP, γH2AX and Caspase-3 signaling pathways; experiment: Immunoblotting of DNA damage and apoptotic pathway, P53-deficient tumor cells; type: cell-based; conditions: H1299-NC, A549-shP53; Endostatin 10 μg/ml, Etoposide 10 μM 16 h, z-DEVD-fmk 10 μM; Endostatin and z-DEVD-fmk added 1 h before Etoposide
From the text: In this example, tumor cells (H1299-NC, H1299-P53, A549-NC, A549-shP53) were divided into six treatment groups.

γH2AX = experiment: Immunoblotting of γH2AX level (DSBs damage repair); type: cell-based; conditions: H1299 and A549 cells; Endostatin 10 μg/ml pretreatment 1 h, Etoposide 10 μM 1 hour, then fresh medium
From the text: In this example, the level of γH2AX was used to reflect the degree of DSBs damage. Tumor cells (including H1299 and A549 cells) were divided into eight treatment groups.

[6] = system: tumor cells with normal P53 function (H1299-P53 and A549-NC); experiment: CCK8 cell activity, tumor cells with normal P53 function; type: cell-based
Description: as §2, §3

[7] = system: P53-deficient tumor cells (H1299-NC, A549-shP53); experiment: Cell colony formation, P53-deficient tumor cells; type: cell-based; conditions: Endostatin 10 μg/ml added 1 h before Etoposide 1 μM, 16 h; colonies after 14 days
Description: (§6) After the treatment, the cells were digested with trypsin, counted, and re-plated in a six-well plate with 1000 cells per well. The cells were cultured in a normal medium for 14 days to form cell colonies.

[8] = system: tumor cells with normal P53 function (H1299-P53, A549-NC); experiment: Cell colony formation, tumor cells with normal P53 function; type: cell-based; conditions: Endostatin 10 μg/ml added 1 h before Etoposide 1 μM, 16 h
Description: as §6

[9] = system: mRNA levels of BAX, NOXA, PUMA, and P21; experiment: Real-time PCR of pro-apoptotic molecules, P53-deficient tumor cells; type: cell-based; conditions: H1299-NC, A549-shP53; Endostatin 10 μg/ml added 1 h before Etoposide 1 μM, 16 h
Description: as §5

H1299 mouse tumor model = experiment: Survival of H1299 tumor-bearing mice; type: in vivo; conditions: administration as in Example 12, stopped after 25 days
Description: as §1, §4

[10] = Operation process as in Example 5, Doxorubicin instead of Etoposide

B1: Endostatin: recombinant natural human endostatin expressed by E. coli, from Protgen, SEQ ID NO: 2 (protein)
chain: MHSHRDFQPVLHLVALNSPLSGGMRGIRGADFQCFQQARAVGLAGTFRAFLSSRLQDLYSIVRRADRAAVPIVNLKDELLFPSWEALFSGSEGPLKPGARIFSFDGKDVLRHPTWPQKSVWHGSDPNGRRLTESYCETWRTEAPSATGQASSLLGGRLLGQSAASCHHAYIVLCIENSFMTASK
modifications: The amino acid sequence of natural human endostatin
tumor suppression rate (H1299-P53 tumor; H1299-P53, Day 19, compared with control group, Endostatin 20 mg/kg i.p. once a day, Etoposide 2 mg/kg i.p. once every two days): 33.8%
Effect on the inhibitory effect of Etoposide on tumor growth (H1299-P53 tumor; H1299-P53, Endostatin 20 mg/kg i.p. once a day and Etoposide 2 mg/kg i.p. once every two days): could not enhance the inhibitory effect of Etoposide on tumor growth
Effect on toxicity of Etoposide to tumor cells (cell activity) ([1]; Endostatin 10 μg/ml pretreatment 1 h, Etoposide 0, 0.1, 1, 10 μM, 12 hours treatment, 72 hours further culture): could enhance the toxicity of Etoposide to tumor cells
Effect on toxicity of Doxorubicin to tumor cells (cell activity) [1, 10]: could enhance the toxicity of Doxorubicin to tumor cells
Survival time of mice [2]: could prolong the survival time of the mice to some extent
Tumor cell proliferation (PCNA) and protein level of DNA-PKcs in tumor tissue [3]: could reduce the proliferation of tumor cells and reduce the protein level of DNA-PKcs; also recorded: did not enhance the inhibitory effect of Etoposide on tumor proliferation and the effect of Etoposide on the protein levels of DNA-PKcs
tumor suppression rate (H1299-NC tumor): 19.6%
Effect on the pro-apoptotic effect of Etoposide (mRNA of pro-apoptotic molecules) [4]: did not significantly enhance the pro-apoptotic effect of Etoposide
DNA-PKcs, PARP, γH2AX and Caspase-3 signaling pathway levels [5]: did not affect the above-mentioned signaling pathway levels
Reduction of γH2AX level (repair of DSBs damage) after Etoposide (γH2AX): delayed the reduction of γH2AX level
Effect on the inhibitory effect of Etoposide on cell activity ([6]; Endostatin 10 μg/ml pretreatment 1 h, Etoposide 0, 0.1, 1, 10 μM): did not significantly enhance the inhibitory effect of Etoposide
Effect on the inhibitory effect of Doxorubicin on cell activity [6, 10]: did not significantly enhance the inhibitory effect of Doxorubicin
Effect on inhibition of tumor cell colony-forming ability by Etoposide [7]: could enhance the inhibitory effect of Etoposide on tumor cell colony-forming ability
Effect on inhibition of colony-forming ability by Etoposide [8]: did not significantly enhance theinhibitory effect of Etoposide
Effect on up-regulation of pro-apoptotic molecules by Etoposide (mRNA) [9]: could enhance Etoposide to up-regulate pro-apoptotic molecules
median survival time longer than that of the control group (H1299 mouse tumor model): 24.2%

Reference: patent US20240165140A1, “MEDICATION FOR INHIBITING DNA-PKCS” (TSINGHUA UNIVERSITY, priority 2017, published 2024)
